Experimental data: PMC10907724, “Optineurin provides a mitophagy contact site for TBK1 activation” (The EMBO Journal, 2024)

B1: recombinant OPTN monobody clone #3 (His6-tagged) (designed binder)
chain: VSDVPRDLEVVAATPTSLLISWDAPWWWDYGYMYYRITYGETGGNSPVQEFTVPGSKSTATISGLKPGVDYTITVYAWDVAEWVTKVATSWPISINYRT
B2: GST-TBK1 (677–729 aa) (domain or fragment, UniProt Q9UHD2 677-729, looked up)
chain: YPSSNTLVEMTLGMKKLKEEMEGVVKELAENNHILERFGSLTMDGGLRNVDCL
notes: Plasmid pGEX6P1_opt-TBK1 (677–729aa); also called GST-tagged TBK1 (677–729 aa); GST-TBK chimera; source: E. coli BL21-CodonPlus(DE3)-RIL, purified (glutathione Sepharose); not shown: GST, N-terminal, kept
B3: recombinant OPTN monobody clone #4 (His6-tagged) (designed binder)
chain: VSDVPRDLEVVAATPTSLLISWDAPWFWYFPYYYQEWYYRITYGETGGNSPVQEFTVPGSKSTATISGLKPGVDYTITVYAAMELKGIQEYRNPISINYRT

Legend:
[1] = target: T1, biotinylated OPTN (26–196 aa) (UniProt Q96CV9 26-196, NH2-GGG(Lys[Biotin])-CONH2 joined at the C-terminal sortase recognition sequence by Sortase 5Y); assay: BLI; biotinylated OPTN (26–196 aa) immobilised on a streptavidin biosensor (Octet); monobody as analyte at various concentrations; 30 °C; 50 mM Hepes-KOH pH 7.5, 300 mM NaCl, 0.05% Tween 20, 0.1% PEG6000; association 600 s, dissociation 600 s; global fitting; settings: both partners purified
T1 construct: also called Biotin-modified OPTN; not shown: GST, N-terminal, cleaved; His6, C-terminal, cleaved; biotin (GGGK-biotin), C-terminal, kept
T1 sequence (Q96CV9 26-196): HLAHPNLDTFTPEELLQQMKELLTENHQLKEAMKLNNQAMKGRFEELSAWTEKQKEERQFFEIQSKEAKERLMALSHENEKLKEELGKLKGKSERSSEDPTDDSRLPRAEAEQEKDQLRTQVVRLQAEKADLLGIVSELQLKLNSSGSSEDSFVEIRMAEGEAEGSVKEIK

[2] = target: T2, OPTN (26–196 aa)-EGFP with E50K (UniProt Q96CV9 26-196, E50K); assay: pull-down; recombinant GST-TBK1 (677–729 aa), OPTN (26–196 aa)-EGFP or EGFP alone, and monobodies, 4.5 μM each, with glutathione Sepharose in 50 mM Tris–HCl pH 7.5, 120 mM NaCl, 1 mM TCEP, 10% glycerol, 30 min at room temperature; washes with 0.1% Triton X-100; CBB staining; settings: both partners purified
T2 construct: source: E. coli BL21-CodonPlus(DE3)-RIL, purified (Ni-NTA); not shown: EGFP, C-terminal, kept
T2 sequence (Q96CV9 26-196 E50K): as the sequence (Q96CV9 26-196) above, with E25K counted along it

Row | Binder | Kd [1] [nM] | binding result [2]
1 | B1 | 4.56 | –
2 | B2 | – | binds
3 | B3 | 6.19 | –
